The values below are quoted from earlier work in publication PMC6586500.

A word on the Kd: it is the concentration at which binding is half-saturated.

In the series the target is Histone H3K9me3 peptide (Homo sapiens) (UniProt P68431).

Chain of CBX5 (P45973 whole entry): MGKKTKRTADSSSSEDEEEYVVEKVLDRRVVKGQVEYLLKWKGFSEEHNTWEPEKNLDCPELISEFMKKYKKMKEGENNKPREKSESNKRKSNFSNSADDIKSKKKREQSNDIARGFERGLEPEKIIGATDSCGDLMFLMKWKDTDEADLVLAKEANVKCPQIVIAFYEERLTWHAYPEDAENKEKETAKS

As for CBX5 (from UniProt P45973), the Kd is 30 µM.
